Experimental data published in patent US20180222961A1 (IMMATICS BIOTECHNOLOGIES, published 2018).

Target: T1, HLA-B*07:02 (human)
T1 construct: also called peptide-receptive MHC molecules
Experiment: UV-exchange b2m ELISA; exchange-yield grade
Description: Candidate peptides for T cell based therapies according to the present invention were further tested for their MHC binding capacity (affinity). The individual peptide-MHC complexes were produced by UV-ligand exchange, where a UV-sensitive peptide is cleaved upon UV-irradiation, and exchanged with the peptide of interest as analyzed. Only peptide candidates that can effectively bind and stabilize the peptide-receptive MHC molecules prevent dissociation of the MHC complexes. To determine the yield of the exchange reaction, an ELISA was performed based on the detection of the light chain (β2m) of stabilized MHC complexes. The assay was performed as generally described in Rodenko et al. (Rodenko et al., 2006).
96 well MAXISorp plates (NUNC) were coated over night with 2 ug/ml streptavidin in PBS at room temperature, washed 4× and blocked for 1 h at 37° C. in 2% BSA containing blocking buffer. Refolded HLA-A*02:01/MLA-001 monomers served as standards, covering the range of 15-500 ng/ml. Peptide-MHC monomers of the UV-exchange reaction were diluted 100-fold in blocking buffer. Samples were incubated for 1 h at 37° C., washed four times, incubated with 2 ug/ml HRP conjugated anti-β2m for 1 h at 37° C., washed again and detected with TMB solution that is stopped with […]. Absorption was measured at 450 nm. Candidate peptides that show a high exchange yield (preferably higher than 50%, most preferred higher than 75%) are generally preferred for a generation and production of antibodies or fragments thereof, and/or T cell receptors or fragments thereof, as they show sufficient avidity to the MHC molecules and prevent dissociation of the MHC complexes.

SPRTEASSAVL
peptide exchange yield: 50 to 75%

YPLRGSSIFGL
peptide exchange yield: 50 to 75%

FPQSQYPQY
peptide exchange yield: 50 to 75%

KPSESIYSAL
peptide exchange yield: 50 to 75%

APRWFPQPTVV
peptide exchange yield: 50 to 75%

FPFQPGSV
peptide exchange yield: 50 to 75%

FPRLVGPDF
peptide exchange yield: 50 to 75%

SPASRSISL
peptide exchange yield: 50 to 75%

EPKTATVL
peptide exchange yield: 20 to 50%

TPWAESSTKF
peptide exchange yield: 20 to 50%

RVRSTISSL
peptide exchange yield: 50 to 75%

IPGPAQSTI
peptide exchange yield: 20 to 50%

IPMAAVKQAL
peptide exchange yield: 50 to 75%

SPQSMSNTL
peptide exchange yield: 50 to 75%

SPHPVTALLTL
peptide exchange yield: 50 to 75%

TPGLRETSI
peptide exchange yield: 20 to 50%

RPLFQKSSM
peptide exchange yield: 50 to 75%

SPMTSLLTSGL
peptide exchange yield: 50 to 75%

IPRPEVQAL
peptide exchange yield: 50 to 75%

LPYFREFSM
peptide exchange yield: 50 to 75%

APAAWLRSA
peptide exchange yield: 20 to 50%

VPNQSSESL
peptide exchange yield: 50 to 75%

YPEGAAYEF
peptide exchange yield: 20 to 50%

FPDNQRPAL
peptide exchange yield: 50 to 75%

SPSSPMSTF
peptide exchange yield: 20 to 50%

TVREASGLL
peptide exchange yield: 50 to 75%

YPTEHVQF
peptide exchange yield: 20 to 50%

SPRRSPRISF
peptide exchange yield: 20 to 50%

RVEEVRALL
peptide exchange yield: 50 to 75%

LPRGPLASLL
peptide exchange yield: 50 to 75%

LPYGPGSEAAAF
peptide exchange yield: 50 to 75%

RPIVPGPLL
peptide exchange yield: 50 to 75%

KPGPEDKL
peptide exchange yield: 20 to 50%

LPRPGAVL
peptide exchange yield: 50 to 75%

MPNLPSTTSL
peptide exchange yield: 50 to 75%

RPAMNYDKL
peptide exchange yield: 20 to 50%

KVKSDRSVF
peptide exchange yield: 10 to 20%

RPAPFEVVF
peptide exchange yield: 50 to 75%

SPSPVSSTL
peptide exchange yield: 50 to 75%

SPSPVTSTL
peptide exchange yield: 50 to 75%

KPGTSYRVTL
peptide exchange yield: 50 to 75%

GPREALSRL
peptide exchange yield: 50 to 75%

SPAMTSTSF
peptide exchange yield: 20 to 50%

APTEDLKAL
peptide exchange yield: 50 to 75%

APRPASSL
peptide exchange yield: 50 to 75%

YPRTITPGM
peptide exchange yield: 50 to 75%

LPMWKVTAF
peptide exchange yield: 50 to 75%

APVIFSHSA
peptide exchange yield: 20 to 50%

SPNKGTLSV
peptide exchange yield: 50 to 75%

SPMATTSTL
peptide exchange yield: 50 to 75%

SPRENFPDTL
peptide exchange yield: 50 to 75%

SPFSAEEANSL
peptide exchange yield: 50 to 75%

SPTFHLTL
peptide exchange yield: 50 to 75%

HPGSSALHY
peptide exchange yield: 20 to 50%

APRAGSQVV
peptide exchange yield: 50 to 75%

YPLRGSSI
peptide exchange yield: 20 to 50%

APLPRPGAVL
peptide exchange yield: 50 to 75%

KPYGGSGPL
peptide exchange yield: 50 to 75%

VPDSGATATAY
peptide exchange yield: 20 to 50%

LPSDSHFKITF
peptide exchange yield: 50 to 75%

SPGATSRGTL
peptide exchange yield: 50 to 75%

YPLRGSSIF
peptide exchange yield: 50 to 75%

VPVYILLDEM
peptide exchange yield: 20 to 50%

RVRSRISNL
peptide exchange yield: 50 to 75%

RPLFYVVSL
peptide exchange yield: 20 to 50%

VPDQPHPEI
peptide exchange yield: 50 to 75%

YPGFPQSQY
peptide exchange yield: 20 to 50%
